Laboratory results taken from patent US5889153A, “Protein or polypeptide, method for producing the same and intermediate compound therefor” (Hisamitsu Pharmaceutical Co., Inc., priority 1994, dated 1999).

What was measured:
[1] = test system: blood glucose; assay: pharmacological effect of modified insulin: blood glucose value after intravenous administration; assay type: in vivo; conditions: about 0.5 U intravenously, normal rat
Text: Then, at prescribed intervals of time, venous blood was sampled to measure the insulin concentration in blood and blood glucose value at each time point.

[2] = in-vivo behaviors of modified SOD: SOD concentration in blood after intravenous administration; design: species or system rat; conditions: about 5,000 U intravenously; for in-vivo behaviors (SOD concentration in blood): urethane-anesthetized rat or rat with ligated renal artery
Text: About 5,000 U p-nitrophenyl formate-activated polyethyleneglycol-monocholesterolether (compound C)-modified or non-modified SOD were intravenously administered to an urethane-anesthetized rat or a rat of which only the renal artery was ligated after urethane anesthesia. Then, at prescribed intervals of time, venous blood was sampled to measure the SOD concentration in blood at each time point.

[3] = test system: acute gastric ulcer; assay: pharmacological effect of modified SOD: water immersion stress ulcerative model; assay type: in vivo; conditions: 10,000 U, rat, compared with non-modified SOD
Procedure: To a rat, 10,000 U p-nitrophenyl formate-activated polyethyleneglycol-monocholesterolether (compound C)-modified or non-modified SOD were administered. Then, an acute gastric ulcer was caused in accordance with the method for preparing a water immersion stress ulcerative model, and the effect inhibiting generation of ulcer at this point was investigated.

[4] = water-solubility of reactive PEG derivative; assay type: physicochemical; conditions: 0.025 mM Na2B4O7.10H2O, pH 9.2, given as the reason for insufficient modification
Procedure: After dissolving bovine-derived insulin (6.0 mg) in 0.025 mM Na2 B4 O7.10H2 O (pH: 9.2) in an amount of 200 ml, p-nitrophenyl formate-activated polyethyleneglycolmono-cholesterolether (compound A), N-succinimide-activated polyethyleneglycol-monocholesterolether (compound B), p-nitrophenyl formate-activated polyethyleneglycol-mono-cholesterolether (compound C), cyanulchloride-activated polyethyleneglycol-monocholesterolether (compound D), double-type cyanulchloride-activated polyethyleneglycol-monocholesterolether (compound E), and p-nitrophenyl formate-activated polyethyleneglycol-monocholosterolether (compound F) obtained in Example 1 were respectively added in an amount of 2.0 nmol, and the mixtures were stirred at the room temperature for five hours. The resultant mixtures were purified through gel filtration by the use of Sephadex G-75 (made by Pharmacia Company). The target fraction was desalted and concentrated through ultrafiltration (made by Pharmacia Company), thereby obtaining the target aqueous solution (1.8 mg/ml). In the case of p-nitrophenyl formate-activated polyethylene-glycol-monocholesterolether (compoundA), the target modification was insufficient. […] In the case of p-nitrophenyl formate-activated polyethyleneglycol-monocholesterolether (compound F) also, the chemical modification was not sufficient. This is considered to be due to stereo-hindrance.

insulin [non-modified insulin]
pharmacological effect (blood glucose value) [1]: identical pharmacological effects

non-modified SOD: bovine-derived Cu, Zn-SOD (Superoxide Dismutase), not modified
in-vivo behaviors (SOD concentration in blood) [2]: clearly improved

modified SOD: bovine-derived Cu, Zn-SOD modified with p-nitrophenyl formate-activated polyethyleneglycol-monocholesterolether (compound C), Example 3
effect inhibiting generation of ulcer [3]: production of an ulcer is inhibited
glomerular filtration ([2]; rat): exempt from glomerular filtration
half-life in blood ([2]; rat): extended
in-vivo behaviors (SOD concentration in blood) [2]: largely improved

p-nitrophenyl formate-activated polyethylene-glycolmonocholesterolether [compound A]
water-solubility [4]: low water-solubility
